Patent US20180155451A1 (published 2018)

Molecular target: T1, FcγRIIIa extracellular domain with C-terminal His tag (human, UniProt P08637 17-208)
T1 construct: extracellular domain; also called FcgRIIIa; CD16A
Test: SPR (Biacore), antibody captured on antigen peptide chip, FcγR as analyte
Description: The expression vectors for the respective H chains were combined in a way that each of the alterations L234Y, G236W, S298A, S239D, A330L, and I332E is present in the same H chain as P329R or in the different H chain from P329R, and the expression vector GpL16-k0 for the L chain was combined with them. Antibodies of interest were expressed and prepared according to the method described in Reference Example 1. The prepared antibodies were used to assay the FcγRIIIa-binding activity. The result of assessment using P329R on the direction of FcγRIIIa recognition by L234Y, G236W, S298A, S239D, A330L, and I332E is summarized in Table 12.
Analysis of interaction between objective antibody and the FcγR was carried out using Biacore T100 (GE Healthcare). HBS-EP+ (GE Healthcare) was used as the running buffer, and the measurement temperature was set to 25° C. Chips produced by immobilizing the antigen peptide by the amine coupling method to a Series S Sencor Chip CM5 (GE Healthcare), or alternatively, chips produced by allowing preliminarily biotinylated antigen peptides to interact with and immobilize onto a Series S Sensor Chip SA (certified) (GE Healthcare) were used. Antibodies of interest were captured onto an antigen peptide-immobilized chip, and allowed to interact to each FcγR diluted with running buffer. To regenerate and repeatedly use the chip, the antibodies captured on the chip were washed off by reacting 10 mM glycine-HCl, pH 1.5.

T1 sequence (P08637 17-208): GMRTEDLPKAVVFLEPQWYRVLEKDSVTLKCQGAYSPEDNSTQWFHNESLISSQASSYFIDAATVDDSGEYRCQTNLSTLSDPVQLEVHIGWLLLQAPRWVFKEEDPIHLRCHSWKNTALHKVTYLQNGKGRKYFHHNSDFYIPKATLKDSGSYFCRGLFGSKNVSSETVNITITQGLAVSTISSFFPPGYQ

Binder | FcγRIIIa BINDING ACTIVITY (relative)
GpH7-A5/GpH7-HA18/GpL16-k0 (antibody, human IgG1, kappa, Heterodimerized anti-glypican-3 IgG1 variant) heavy 1: not shown heavy 2: QVQLVQSGAEVKKPGASVTVSCKASGYTFTDYEMHWIRQPPGEGLEWIGAIDPKTGDTAYSESFQDRVTLTADKSTSTAYMELSSLTSEDTAVYYCTRFYSYTYWGQGTLVTVSSASTKGPSVFPLAPSSKSTSGGTAALGCLVKDYFPEPVTVSWNSGALTSGVHTFPAVLQSSGLYSLSSVVTVPSSSLGTQTYICNVNHKPSNTKVDKKVEPKSCDKTHTCPPCPAPELLGGPSVFLFPPKPKDTLMISRTPEVTCVVVDVSHEDPEVKFNWYVDGVEVHNAKTKPREEQYNSTYRVVSVLTVLHQDWLNGKEYKCKVSNKALRAPEEKTISKAKGQPREPQVYTLPPSRDELTKNQVSLTCLVKGFYPSDIAVEWESNGQPENNYKTTPPVLDSDGSFFLYSKLTVDKSRWQQGNVFSCSVMHEALHNHYTQESLSLSP light: DIVMTQSPLSLPVTPGEPASISCQASESLVHSNRNTYLHWYLQKPGQSPQLLIYKVSNRFSGVPDRFSGSGSGTDFTLKISRVEAEDVGVYYCSQNTHVPPTFGQGTKVEIERTVAAPSVFIFPPSDEQLKSGTASVVCLLNNFYPREAKVQWKVDNALQSGNSQESVTEQDSKDSTYSLSSTLTLSKADYEKHKVYACEVTHQGLSSPVTKSFNRGEC | 35 relative, GpH7-A5/GpH7-B3/GpL16-k0 = 100
GpH7-A48/GpH7-B3-20-08L/GpL16-k0 (antibody, human IgG1, kappa, Heterodimerized anti-glypican-3 IgG1 variant) heavy 1: QVQLVQSGAEVKKPGASVTVSCKASGYTFTDYEMHWIRQPPGEGLEWIGAIDPKTGDTAYSESFQDRVTLTADKSTSTAYMELSSLTSEDTAVYYCTRFYSYTYWGQGTLVTVSSASTKGPSVFPLAPSSKSTSGGTAALGCLVKDYFPEPVTVSWNSGALTSGVHTFPAVLQSSGLYSLSSVVTVPSSSLGTQTYICNVNHKPSNTKVDKKVEPKSCDKTHTCPPCPAPELLGGPSVFLFPPKPKDTLMISRTPEVTCVVVDVSHEDPEVKFNWYVDGVEVHNAKTKPREEQYNSTYRVVSVLTVLHQDWLNGKEYKCKVSNKALRAPIEKTISKAKGQPREPQVYTLPPSRKELTKNQVSLTCLVKGFYPSDIAVEWESNGQPENNYKTTPPVLDSDGSFFLYSKLTVDKSRWQQGNVFSCSVMHEALHNRYTQKSLSLSP heavy 2: not shown light: DIVMTQSPLSLPVTPGEPASISCQASESLVHSNRNTYLHWYLQKPGQSPQLLIYKVSNRFSGVPDRFSGSGSGTDFTLKISRVEAEDVGVYYCSQNTHVPPTFGQGTKVEIERTVAAPSVFIFPPSDEQLKSGTASVVCLLNNFYPREAKVQWKVDNALQSGNSQESVTEQDSKDSTYSLSSTLTLSKADYEKHKVYACEVTHQGLSSPVTKSFNRGEC | 60 relative, GpH7-A5/GpH7-B3/GpL16-k0 = 100
GpH7-A48/GpH7-B3-22-10E/GpL16-k0 (antibody, human IgG1, kappa, Heterodimerized anti-glypican-3 IgG1 variant) heavy 1: QVQLVQSGAEVKKPGASVTVSCKASGYTFTDYEMHWIRQPPGEGLEWIGAIDPKTGDTAYSESFQDRVTLTADKSTSTAYMELSSLTSEDTAVYYCTRFYSYTYWGQGTLVTVSSASTKGPSVFPLAPSSKSTSGGTAALGCLVKDYFPEPVTVSWNSGALTSGVHTFPAVLQSSGLYSLSSVVTVPSSSLGTQTYICNVNHKPSNTKVDKKVEPKSCDKTHTCPPCPAPELLGGPSVFLFPPKPKDTLMISRTPEVTCVVVDVSHEDPEVKFNWYVDGVEVHNAKTKPREEQYNSTYRVVSVLTVLHQDWLNGKEYKCKVSNKALRAPIEKTISKAKGQPREPQVYTLPPSRKELTKNQVSLTCLVKGFYPSDIAVEWESNGQPENNYKTTPPVLDSDGSFFLYSKLTVDKSRWQQGNVFSCSVMHEALHNRYTQKSLSLSP heavy 2: not shown light: DIVMTQSPLSLPVTPGEPASISCQASESLVHSNRNTYLHWYLQKPGQSPQLLIYKVSNRFSGVPDRFSGSGSGTDFTLKISRVEAEDVGVYYCSQNTHVPPTFGQGTKVEIERTVAAPSVFIFPPSDEQLKSGTASVVCLLNNFYPREAKVQWKVDNALQSGNSQESVTEQDSKDSTYSLSSTLTLSKADYEKHKVYACEVTHQGLSSPVTKSFNRGEC | 189 relative, GpH7-A5/GpH7-B3/GpL16-k0 = 100
GpH7-A48/GpH7-B3-15-02A/GpL16-k0 (antibody, human IgG1, kappa, Heterodimerized anti-glypican-3 IgG1 variant) heavy 1: QVQLVQSGAEVKKPGASVTVSCKASGYTFTDYEMHWIRQPPGEGLEWIGAIDPKTGDTAYSESFQDRVTLTADKSTSTAYMELSSLTSEDTAVYYCTRFYSYTYWGQGTLVTVSSASTKGPSVFPLAPSSKSTSGGTAALGCLVKDYFPEPVTVSWNSGALTSGVHTFPAVLQSSGLYSLSSVVTVPSSSLGTQTYICNVNHKPSNTKVDKKVEPKSCDKTHTCPPCPAPELLGGPSVFLFPPKPKDTLMISRTPEVTCVVVDVSHEDPEVKFNWYVDGVEVHNAKTKPREEQYNSTYRVVSVLTVLHQDWLNGKEYKCKVSNKALRAPIEKTISKAKGQPREPQVYTLPPSRKELTKNQVSLTCLVKGFYPSDIAVEWESNGQPENNYKTTPPVLDSDGSFFLYSKLTVDKSRWQQGNVFSCSVMHEALHNRYTQKSLSLSP heavy 2: not shown light: DIVMTQSPLSLPVTPGEPASISCQASESLVHSNRNTYLHWYLQKPGQSPQLLIYKVSNRFSGVPDRFSGSGSGTDFTLKISRVEAEDVGVYYCSQNTHVPPTFGQGTKVEIERTVAAPSVFIFPPSDEQLKSGTASVVCLLNNFYPREAKVQWKVDNALQSGNSQESVTEQDSKDSTYSLSSTLTLSKADYEKHKVYACEVTHQGLSSPVTKSFNRGEC | 47 relative, GpH7-A5/GpH7-B3/GpL16-k0 = 100
GpH7-A48/GpH7-B3-01-15Y/GpL16-k0 (antibody, human IgG1, kappa, Heterodimerized anti-glypican-3 IgG1 variant) heavy 1: QVQLVQSGAEVKKPGASVTVSCKASGYTFTDYEMHWIRQPPGEGLEWIGAIDPKTGDTAYSESFQDRVTLTADKSTSTAYMELSSLTSEDTAVYYCTRFYSYTYWGQGTLVTVSSASTKGPSVFPLAPSSKSTSGGTAALGCLVKDYFPEPVTVSWNSGALTSGVHTFPAVLQSSGLYSLSSVVTVPSSSLGTQTYICNVNHKPSNTKVDKKVEPKSCDKTHTCPPCPAPELLGGPSVFLFPPKPKDTLMISRTPEVTCVVVDVSHEDPEVKFNWYVDGVEVHNAKTKPREEQYNSTYRVVSVLTVLHQDWLNGKEYKCKVSNKALRAPIEKTISKAKGQPREPQVYTLPPSRKELTKNQVSLTCLVKGFYPSDIAVEWESNGQPENNYKTTPPVLDSDGSFFLYSKLTVDKSRWQQGNVFSCSVMHEALHNRYTQKSLSLSP heavy 2: not shown light: DIVMTQSPLSLPVTPGEPASISCQASESLVHSNRNTYLHWYLQKPGQSPQLLIYKVSNRFSGVPDRFSGSGSGTDFTLKISRVEAEDVGVYYCSQNTHVPPTFGQGTKVEIERTVAAPSVFIFPPSDEQLKSGTASVVCLLNNFYPREAKVQWKVDNALQSGNSQESVTEQDSKDSTYSLSSTLTLSKADYEKHKVYACEVTHQGLSSPVTKSFNRGEC | 11 relative, GpH7-A5/GpH7-B3/GpL16-k0 = 100
GpH7-A48/GpH7-B3-06-09D/GpL16-k0 (antibody, human IgG1, kappa, Heterodimerized anti-glypican-3 IgG1 variant) heavy 1: QVQLVQSGAEVKKPGASVTVSCKASGYTFTDYEMHWIRQPPGEGLEWIGAIDPKTGDTAYSESFQDRVTLTADKSTSTAYMELSSLTSEDTAVYYCTRFYSYTYWGQGTLVTVSSASTKGPSVFPLAPSSKSTSGGTAALGCLVKDYFPEPVTVSWNSGALTSGVHTFPAVLQSSGLYSLSSVVTVPSSSLGTQTYICNVNHKPSNTKVDKKVEPKSCDKTHTCPPCPAPELLGGPSVFLFPPKPKDTLMISRTPEVTCVVVDVSHEDPEVKFNWYVDGVEVHNAKTKPREEQYNSTYRVVSVLTVLHQDWLNGKEYKCKVSNKALRAPIEKTISKAKGQPREPQVYTLPPSRKELTKNQVSLTCLVKGFYPSDIAVEWESNGQPENNYKTTPPVLDSDGSFFLYSKLTVDKSRWQQGNVFSCSVMHEALHNRYTQKSLSLSP heavy 2: not shown light: DIVMTQSPLSLPVTPGEPASISCQASESLVHSNRNTYLHWYLQKPGQSPQLLIYKVSNRFSGVPDRFSGSGSGTDFTLKISRVEAEDVGVYYCSQNTHVPPTFGQGTKVEIERTVAAPSVFIFPPSDEQLKSGTASVVCLLNNFYPREAKVQWKVDNALQSGNSQESVTEQDSKDSTYSLSSTLTLSKADYEKHKVYACEVTHQGLSSPVTKSFNRGEC | 123 relative, GpH7-A5/GpH7-B3/GpL16-k0 = 100
GpH7-A48/GpH7-B3-03-20W/GpL16-k0 (antibody, human IgG1, kappa, Heterodimerized anti-glypican-3 IgG1 variant) heavy 1: QVQLVQSGAEVKKPGASVTVSCKASGYTFTDYEMHWIRQPPGEGLEWIGAIDPKTGDTAYSESFQDRVTLTADKSTSTAYMELSSLTSEDTAVYYCTRFYSYTYWGQGTLVTVSSASTKGPSVFPLAPSSKSTSGGTAALGCLVKDYFPEPVTVSWNSGALTSGVHTFPAVLQSSGLYSLSSVVTVPSSSLGTQTYICNVNHKPSNTKVDKKVEPKSCDKTHTCPPCPAPELLGGPSVFLFPPKPKDTLMISRTPEVTCVVVDVSHEDPEVKFNWYVDGVEVHNAKTKPREEQYNSTYRVVSVLTVLHQDWLNGKEYKCKVSNKALRAPIEKTISKAKGQPREPQVYTLPPSRKELTKNQVSLTCLVKGFYPSDIAVEWESNGQPENNYKTTPPVLDSDGSFFLYSKLTVDKSRWQQGNVFSCSVMHEALHNRYTQKSLSLSP heavy 2: not shown light: DIVMTQSPLSLPVTPGEPASISCQASESLVHSNRNTYLHWYLQKPGQSPQLLIYKVSNRFSGVPDRFSGSGSGTDFTLKISRVEAEDVGVYYCSQNTHVPPTFGQGTKVEIERTVAAPSVFIFPPSDEQLKSGTASVVCLLNNFYPREAKVQWKVDNALQSGNSQESVTEQDSKDSTYSLSSTLTLSKADYEKHKVYACEVTHQGLSSPVTKSFNRGEC | 13 relative, GpH7-A5/GpH7-B3/GpL16-k0 = 100
